Measurements taken from patent publication US20200123264A1.

Columns and labels:
[1] = target: extracellular domain of human LEPR with an N-terminal myc-myc tag, GPI-anchored on HEK293 cells (human) (UniProt P48357); experiment: FACS, secondary alone, HEK293/hLEPR-GPI cells, 1 µM Leptin
[2] = target: extracellular domain of human LEPR with an N-terminal myc-myc tag, GPI-anchored on HEK293 cells (human) (UniProt P48357); experiment: FACS, secondary alone, HEK293/hLEPR-GPI cells, no added Leptin

extracellular domain of human LEPR with an N-terminal myc-myc tag, GPI-anchored on HEK293 cells (human), sequence (P48357 22-839 limits assumed): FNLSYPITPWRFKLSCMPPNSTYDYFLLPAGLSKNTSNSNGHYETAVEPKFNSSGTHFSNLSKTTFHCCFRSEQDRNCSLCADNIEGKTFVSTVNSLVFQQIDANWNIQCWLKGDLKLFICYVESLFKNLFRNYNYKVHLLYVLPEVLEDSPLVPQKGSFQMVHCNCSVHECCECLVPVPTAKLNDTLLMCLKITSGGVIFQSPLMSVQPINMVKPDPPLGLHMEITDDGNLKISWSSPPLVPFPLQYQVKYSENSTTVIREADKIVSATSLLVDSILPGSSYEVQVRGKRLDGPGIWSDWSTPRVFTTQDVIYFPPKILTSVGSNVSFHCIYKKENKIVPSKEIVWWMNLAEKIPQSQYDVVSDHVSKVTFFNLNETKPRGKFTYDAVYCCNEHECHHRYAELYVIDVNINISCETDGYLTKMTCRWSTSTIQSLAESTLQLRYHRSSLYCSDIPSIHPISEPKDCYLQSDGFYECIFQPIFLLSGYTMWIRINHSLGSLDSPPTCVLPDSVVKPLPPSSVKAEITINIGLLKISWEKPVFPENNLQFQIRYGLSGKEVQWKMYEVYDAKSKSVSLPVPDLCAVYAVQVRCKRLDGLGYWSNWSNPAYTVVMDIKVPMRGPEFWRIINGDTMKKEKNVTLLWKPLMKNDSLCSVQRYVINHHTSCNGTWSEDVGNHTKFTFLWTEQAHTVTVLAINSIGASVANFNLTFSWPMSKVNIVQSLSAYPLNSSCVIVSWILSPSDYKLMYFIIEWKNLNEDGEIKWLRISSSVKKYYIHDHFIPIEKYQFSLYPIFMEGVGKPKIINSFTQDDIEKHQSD

Binding Ratio (normalized to unstained) [1] | Binding Ratio (normalized to unstained) [2] | Substance
2 fold | 2 fold | Anti-mouse IgG secondary antibody alone
3 fold | 3 fold | Anti-human IgG secondary antibody alone
